Experiment: soluble on expression in E. coli; label from the status in PepcDB or PDB records

Row | Sequence | soluble on expression in E. coli
1 | MKRIGVFTSGGDAPGMNAAIRAVVRQAHALGVEVIGIRRGYAGMIQGEMVPLGVRDVANIIQRGGTILLTARSQEFLTEEGRAKAYAKLQAAGIEGLVAIGGDGTFRGALCLVEEHGMPVVGVPGTIDNDLYGTDYTIGFDTAVNTALEAIDRIRDTAASHERVFFIEVMGRHAGFIALDVGLAGGAEVIAVPEEPVDPKAVAEVLEASQRRGKKSSIVVVAEGAYPGGAAGLLAAIREHLQVEARVTVLGHIQRGGSPTAKDRILASRLGAAAVEALVGGASGVMVGEVEGEVDLTPLKEAVERRKDINRALLRLSQVLAL | soluble
2 | PTNIHKIHEVQKKLQEEVSIVLIDIADIIVNPKKENGYSRDLYTLNSLIDSSISETYDNINNTLLSDTRFFLEHMDIIKSQRDILENLYSYVSQLNSTPPQAHILSAFIHKIGYTEFEAETGNLLLEELKRLMISMKNQPLPVDRTEFENRAILFLCLTELKQFLVNRKHAQML | soluble
3 | MGSDKIHHHHHHMAISERDIEHIFERLRSGVVPERGLEAFAVGIDKQRTEIHRQFQLAANSEGVFKFLRGGYGCGKTFMSRLAILDAQAQGFATSFVVVSDNDLHFYKFDDVYRKVVQELGTSSCPRGALSDIIDRWIARVEDALIAGGADENSDEFDTLVQQRIEEELASLTGGKAPEDMARVLRAIFTFKQKGEIAEASALLSWLAGSENVAATAKKAAGIKGDIASRDALDYLHGILEIVKAAGYKGLVIVIDEVETVLRMRHDSRGKSLNGIRQICDAADRYRGLLWIYTGTPEFFDTKRGVAGLEPLHDRIQFLTLAGFANPRQPQLELKPFDARRLKEVALKLREIFPTANRTGIVNKVTFEFIERLVAKVTAGFKGDVGVVPRQFLRQFVNILDLASENDEFDPMSAEGFEPTDLNEVELLIREGRTYFDEDPADIQGYAAVEF | not soluble
4 | MSLEFALKAVTEHGPFTDIGKFDQDRWQLFHTDEDRSEAHDLADQHPEKVGEMAALWMSEAKKYHVLPLSDLGVMGILKMEFKPPVPPSRQYAYYPGTSTVPEHSAANTHGVSFKVLADVEFTADSQGILFAHGSRFGGHALYVKNGKLIYVYNFLGIPPEQRLVGDAPRSGKHVVGVEFIKERMGEYKESYGPARLYVDERIVAEAPIRTMTGHFAITGEGLCIGYDSGDGVSNDYRPKFAFSGGKINKVVFDVGADLYVDVETHLVAAMARDEGHHHHHH | soluble
5 | MDRIVEIEKYSFDETYETSLRPSNFDGYIGQESIKKNLNVFIAAAKKRNECLDHILFSGPAGLGKTTLANIISYEMSANIKTTAAPMIEKSGDLAAILTNLSEGDILFIDEIHRLSPAIEEVLYPAMEDYRLDIIIGSGPAAQTIKIDLPKFTLIGATTRAGMLSNPLRDRFGMQFRLEFYKDSELALILQKAALKLNKTCEEKAALEIAKRSRSTPRIALRLLKRVRDFADVNDEEIITEKRANEALNSLGVNELGFDAMDLRYLELLTAAKQKPIGLASIAAALSEDENTIEDVIEPYLLANGYIERTAKGRIASAKSYSALKLNYEKTLFEE | not soluble
6 | MRWTKEELDRYHRQMILPQVGPEGQERLKRASVVVVGAGGLGVPVLQYLVAARVGRVGVVEMDRVEVSDLHRQVLYTTEDVGEPKALVAQKRLQALNPLVRVEAYPVRLTSENALEILRPYDLVVDASDNFPTRYLVNDAAVLLGKPLVFGAIYQFDGQGTVFHHPTLHGEMGPCYRCLFPKPPPPGAVPSCAEAGVFGVLPAVVGSLMAAEALKVLLGIGKPLAGHLLLYDALEAGFRKLTVRRNPRCPVCGDEPTQRELVDYEAFCGLG | soluble
7 | MGHHHHHHSHQGEEELVSQTDVKTFLEALPQESWQNKHAGSNGNRATNGAPSLVSRGMQGASANTLNSETSTKRAAVYRMNRNHRGLCVIVNNHSFTSLKDRQGTHKDAEILSHVFQWLGFTVHIHNNVTKVEMEMVLQKQKCNPAHADGDCFVFCILTHGRFGAVYSSDEALIPIREIMSHFTALQCPRLAEKPKLFFIQACQGEEIQPSVSIEADALNPEQAPTSLQDSIPAEADFLLGLATVPGYVSFRHVEEGSWYIQSLCNHLKKLVPRMLKFLEKTMEIRGRKRTVWGA | not soluble
8 | MSTLGHQYDNSLVSNAFGFLRLPMNFQPYDSDADWVITGVPFDMATSGRAGGRHGPAAIRQVSTNLAWEHNRFPWNFDMRERLNVVDCGDLVYAFGDAREMSEKLQAHAEKLLAAGKRMLSFGGDHFVTLPLLRAHAKHFGKMALVHFDAHTDTYANGCEFDHGTMFYTAPKEGLIDPNHSVQIGIRTEFDKDNGFTVLDACQVNDRSVDDVIAQVKQIVGDMPVYLTFDIDCLDPAFAPGTGTPVIGGLTSDRAIKLVRGLKDLNIVGMDVVEVAPAYDQSEITALAAATLALEMLYIQAAKKGE | soluble
9 | MGSDKIHHHHHHAERKNALKVDNGHYYKWKEGNIFYTKTGTGKPILLIHDTDSGASGEEWAKVAKKLAKNNTIYTIDLLGCGRSDKPSIQYTSYMYVQIITAFVDDVIGKPVNVAATNLSTAPVIMANALSKDLFNKIILINPVSLQQLKCIPDKSTKFKQNIINLPIVGTFIYNKLMSPIKVDLLFRNKFISRSQLISDNMKDAYYESAHKGQSRGKYLYSSILSNYINTNIAPALKNLDKDVSIIASTGIKNNMDVINNYHKLNSKCDIIHIANAKLYPQLELPEKTASIIKKIVTN | not soluble
10 | MSLDQFDCKVSATGGWDCSPLQNANANLPPRPAHTATSVSTAAAGSSVSGSGGETVEAEPTQRLVTESGGRALKSRSADYSHLDWIPREKLTAAQLAEIGPYCGGSYIEPVRPGMDDGAPSDESPTYVSAKASRYEQEKQIATLAGDVVLRQGSMQVEGDEANLHQLENRGELVGNVKLRDKGMLVVGDHAQVQLDNGEAQVDNAEYVIHKAHARGSALYAKRSENAIIMLKDGTYTRCEPSSNAWTLKGNNVKLNPATGFGTATNATLRVKDFPVFYTPYIYFPIDDRRQSGFLPPSFSSTSDTGFTLVTPYYFNLAPNYDATLYPRYMAKRGMMLEGEFRYLTHSSEGIVNAAYLNDKDDHREGFPDYSKDRWLYGLKNTTGLDSRWLAEVDYTRISDPYYFQDLDTDLGVGSTTYVNQRGTLTYRGDTFTGRLNAQAYQLATTTDVTPYDRLPQITFDGFLPYNPGGMQFTYGTEFVRFDRDLDENIYFNDDGSIRGKRPDASLQGLARATGDRMHLEPGMSLPMTRSWGYVTPTLKYLYTKYDLDLDSQGKTDLNKRDESFDSNQDRSLPLVKVDSGLYFDRDTTFAGTPFRQTLEPRAMYLYVPYKDQDSLPVFDTSEPSFSYDSLWRENRFTGKDRIGDANQLSLGVTSRFIEENGFERASISAGQIYYFRDRRVQLPGLTEKDLKRLNLDPSGLDNDSWRSPYAFAGQYRFNRDWRINSDFNWNPNTSRTESGSAIFHYQPEVDPGKVVNVGYRYRADARRFDSSRGTFRYGNENDIIKQHDFSVIWPLVPQWSVLARWQYDYNKNRTLEAFGGFEYDSCCWKLRLINRYWLDVDDDAFLVQSEKADRGIFLQIVLKGLGGIVGNKTEMFLDKGIQGYRQREEGHHHHHH | not soluble
11 | MGSDKIHHHHHHMFLSIGTLPEDSRFHDAMVYFDMAHLSGTDRSQMLLLPEVVDDYVGPDNPVRFIEAFIDGLDLQASGFIRVEPKLTSRPGYDPADLLKLYLYGYLNRVRSSRRLEAETHRNIEVIWLLRRLTPDHKTIANFRRVNHAAFRQVFREFVILCRQLDLFGRELLAVDGTRIKAVNNKERNFTRAALTKFIREADERLTEYMKRLDNGDAQEENTGGGGPRAKNLAEKITAIKGKRDRHKALLDELDRTGEDQISLTDMDSRAMARMTKVGVGYNIQLAVDVKHKLIAEQEVSNQVVDMGLLTQATQAAMDNLGVEQIEVVADRGYFKVEDIEACEKAGITAYVPKPLRGAAVREGFFSKDEFRYNAEKDVYVCPAGEHLSPRYEKKTRDLKLVEYCNREACRSCDLKAHCTHGYRRVGRVENEAVLDRMAARLAARPEVLDQRRETVEHPFGTIKQWMYQGSFLMRRLENVQGEFSLTALAYNIRRAITLVGVAGLIGAVRA | not soluble
12 | IHHLPPVKAPLQTKKKIMKHCFLCGKKTGLATSFECRCGNNFCASHRYAEAHGCNYDYKSAGRRYLEEANPV | soluble
13 | MPDEKDKHEGTWLQWPHEYTYGEEYKKEVEPIWVKMASALTEGEKVHIVAYDQEEKERINNLLTDEGLNMEKIDFFIAPTDDVWARDSGPIFVYDSNKNLKILDPAFNGWGKKTPYKNDAQIRKNVSKQSGIERVDWGKFVLEGGAIELDSNGTALLTRSAVTNKNRNPDLSEKEIEKYISDLGVSNFIWLDGVPNLDITDFHIDGFAKFHNKSTIVTMKEDDLAEWGLSNKDMDTLLDAKNASGQKYKYEYLPLSKEKVALENGKTLDYKGSYINYYIGNTVVLVPNYNDPNDKIANDTIQKLYPDRKVVGIDVRELYKNGGMIHCVTQQQPIALK | not soluble
14 | MTRQERILQLPFFENKRELAEQVLKMEREEHVYLPDQFEIKQVPPYSFAEKEAIIGRIHEFYFVSIGSDGAWKYQLFKDEMKCREFFVTLSGITDQQIAFWFNNIELLKGA | not soluble
15 | TLFDGIARAVCRAGCLPRKELYEAWEVARRVRRRFRGGRVVDLACGHGLLAWIMLLLDDSSPGALAVDRRLPPSAAGLAAVLETEWPRLRGRVRLLEADLAEVELGRDDLVVSAHACGGLTDLVLARAVAAGARVAVLPCCHDLAGADLAGLQGWLDGPLAMDVLRATGLRERGYRVFTQQ | not soluble
16 | MAHHHHHHSSGLEVLFQGPEPKKYAVTDDYQLSKQVLGLGVNGKVLECFHRRTGQKCALKLLYDSPKARQEVDHHWQASGGPHIVCILDVYENMHHGKRCLLIIMECMEGGELFSRIQERGDQAFTEREAAEIMRDIGTAIQFLHSHNIAHRDVKPENLLYTSKEKDAVLKLTDFGFAKETTQNALQTPCYTPYYVAPEVLGPEKYDKSCDMWSLGVIMYILLCGFPPFYSNTGQAISPGMKRRIRLGQYGFPNPEWSEVSEDAKQLIRLLLKTDPTERLTITQFMNHPWINQSMVVPQTPLHTARVLQEDKDHWDEVKEEMTSALATMRVDYDQV | soluble
17 | MSLTEIRLVDVTMRDGNQSLWGATGLNTAHMLQAAALTEACGFRAIDFTSSSHMAVAVRYFQNNPWERLRRMAAAMPTTPLQFITTGLRFIAWQQADPEFMRLVYRALQANGVGRFVLLDPMHEVPAVIEAAKLVKEEGNAEVMAALTFTLSEIHTDQFYADFARAVGQSPNIDLFYIKDPAGLLSVDRARTLVPAVKAVIGNRPLEIHAHTTVGQGMMASLEAAKLGISAIHVGVGPGGDGSSLPEANRMVANLEEAGFSVGVDKAALKRLTTYWERVALAEGLPPGTPQNFDASFLRHQIAGGVMTTIARQLDELGLSDRMGAVIEETGQVRADLGFPIMVTPFPQMVMTQALFNVIGERRYAQVSDQVIRYCMGKFGKPTSPVDREVLATIMDRPRSRELEDEPMFPALGDLRRQFGSHLPDEEFLLRAVMPGEQVDAMLAAGPSRATYSPQAAPILSLLRQLAARPDARDIVIEREGFRLALHAGASLEGHHHHHH | not soluble
